Positions count from the first letter of the chain named. Where two headings read alike, the source gives them in different places.

The term EC50 denotes the concentration needed to bring the measured effect to its halfway point. Usually Kd stands for a measure of binding affinity in units of concentration. A low value points to tighter binding. As usually defined, the koff is the first-order rate constant of dissociation. Low values mean slow dissociation, high ones fast dissociation. For orientation: kon means a measure of how fast the partners come together. Low values mean slow association, high ones fast association.

Experiment [1] addresses T1, human CD276 protein (human, UniProt Q5ZPR3 29-534).
T1 construct: whole, on cells; for SKOV3 and the other cancer lines the protein is the cells' own; also called B7-H3; B7H3
T1 sequence (looked up): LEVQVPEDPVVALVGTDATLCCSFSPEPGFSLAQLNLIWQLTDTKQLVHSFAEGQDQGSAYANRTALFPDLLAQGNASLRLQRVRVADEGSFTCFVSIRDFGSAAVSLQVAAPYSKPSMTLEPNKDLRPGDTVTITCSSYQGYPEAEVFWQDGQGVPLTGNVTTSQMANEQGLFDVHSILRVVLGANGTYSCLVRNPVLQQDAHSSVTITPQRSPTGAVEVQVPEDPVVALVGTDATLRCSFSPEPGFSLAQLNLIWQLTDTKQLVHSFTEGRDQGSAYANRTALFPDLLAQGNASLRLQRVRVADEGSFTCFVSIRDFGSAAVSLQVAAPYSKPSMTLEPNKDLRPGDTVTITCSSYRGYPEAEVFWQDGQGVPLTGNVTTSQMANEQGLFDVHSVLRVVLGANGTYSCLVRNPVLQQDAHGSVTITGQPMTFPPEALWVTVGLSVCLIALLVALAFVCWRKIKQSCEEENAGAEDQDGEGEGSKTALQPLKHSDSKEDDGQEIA
The experiment in a line: FACS on SKOV3 cells. The method in brief:
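Human IgG1 chimeric antibodies were tested for binding to trypsin-detached SKOV3 ovarian cancer cells by flow cytometry, with cells washed in FACS buffer and kept in the dark before acquisition. Titration read-out was MFI plotted against antibody concentration (nM).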

In experiment [2] the target is T1, human CD276 protein. Nature of the experiment: cell-based or functional assay.
The target of experiment [3] is T1, human CD276 protein. The experiment in a line: cell-based or functional assay. The source holds these as a separate data set.
The target of experiment [4] is T1, human CD276 protein. Nature of the experiment: cell-based or functional assay. The source holds these as a separate data set.
Experiment [5] addresses T2, HUMAN B7H3 (Biacore analyte) (human, UniProt Q5ZPR3 29-461, limits assumed).
T2 construct: also called hB7H3
T2 sequence (looked up): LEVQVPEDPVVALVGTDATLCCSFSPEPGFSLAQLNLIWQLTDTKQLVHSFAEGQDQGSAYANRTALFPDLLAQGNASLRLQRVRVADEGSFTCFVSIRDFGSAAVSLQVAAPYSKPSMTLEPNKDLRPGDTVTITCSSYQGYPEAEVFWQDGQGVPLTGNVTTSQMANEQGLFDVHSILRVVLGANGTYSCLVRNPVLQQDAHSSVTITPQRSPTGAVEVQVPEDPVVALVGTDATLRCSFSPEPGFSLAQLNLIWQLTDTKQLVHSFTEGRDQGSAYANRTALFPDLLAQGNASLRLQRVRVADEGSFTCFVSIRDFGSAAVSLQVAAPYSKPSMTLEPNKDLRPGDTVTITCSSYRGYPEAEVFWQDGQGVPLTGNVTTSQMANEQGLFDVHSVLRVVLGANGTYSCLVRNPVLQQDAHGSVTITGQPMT
Nature of the experiment: SPR, Biacore 8K, antibody captured, B7H3 as analyte, 1:1 binding. A general note: SPR reads the build-up and loss of mass on a sensor chip optically.

The target of experiment [6] is T2, HUMAN B7H3 (Biacore analyte). The experiment is described as above. The source holds these as a separate data set.
The target in experiment [7] is T1, human CD276 protein. The experiment in a line: FACS titration on SKOV3 cells (MFI against Conc. (nM)); unit taken from the concentration axis. From the text:
Sequences of 31 mouse antibodies from Table 5 were selected to generate and produce human IgG1 chimeric antibodies. The binding affinity of these antibodies and bench mark antibody, Enoblituzumab (see U.S. Pat. No. 8,802,091, MGA271, specifically with a construct designated as hBRCA84D-2) and MGC018 (an antibody-drug-conjugate, in which the mAb MGA017 (human IgG1) is conjugated via a cleavable linker to the prodrug seco-DUocarmycin hydroxyBenzamide Azaindole (DUBA), an alkylating agent that can damage DNA in both dividing and non-dividing cells, thereby causing cell death) with human patient derived ovarian cancer cell line, SKOV3, was determined by FACS analysis.
1. Digested cells using Trypsin (1×); Centrifuged the harvested cells at 300 g for 3 min and discarding the supernatant. […] 2. Washed the cells 2 times with FACS buffer by centrifuging at 300 g for 3 min and discarding the supernatant. [0445] 3. […] Kept the cells in dark for FACS analysis.

B1: 10-G6-C4-B2 (human IgG1 chimeric antibody) (antibody, V domains shown)
VH: EVQLVESGGGLVQPGGSLRLSCATSGFTLSDYYMSWVRQPPGKAPEWLGFMRNKANGYTTEYSASVRGRFTISRDTSQSIIYLQMNTLRAEDGATYYCVRDRDGRPFAYWGQGTLVTVSA
VL: DIVMTQSPSSLTVTAGEKVTMSCKSSQSLLNSINQKNFLTWYQQKPGQPPKLLIYWASTRESGVPDRFTGSGSGTDFTLTISSVQAEDLAIYYCQNDYTYPLTFGTGTKLELK
notes: human IgG1 chimeric antibody of the mouse clone
As for B1, in the experiment with human CD276 protein [1], the EC50 was 0.822 µg/mL and the “MFI (Max)” value came to 5640. In addition, the “EC50 of antibody induced ADCC effect on SKOV3” value with human CD276 protein [2] worked out at 0.237 µg/mL. Also, in the experiment with human CD276 protein [3], the “EC50 of antibody induced CDC effect” value is 2.74 nM and the “Top cytotoxicity (%), CDC” value was determined as 93.5%. Also, the “IC50 of indirect ADC cytotoxicity on SKOV3” value with human CD276 protein [4] is 0.008 nM. In experiment [5], this molecule returned a Kd of 0.785 nM, a koff of 0.000198 s⁻¹ and a kon of 252000 M⁻¹ s⁻¹. Moreover, in experiment [6], the Kd amounted to 0.415 nM, the koff came to 8.97e-05 s⁻¹ and the kon came out at 216000 M⁻¹ s⁻¹. In the experiment with human CD276 protein [7], this molecule yielded an EC50 of 2.33 nM.

B2: mVH5-mVL4-10 (antibody, V domains shown)
VH: B1 VH with G57A, D103E
VL: B1 VL with S32A
B2: a half-maximal response with human CD276 protein [7] (EC50) required 2.76 nM.

B3: hVH2-hVL1-10 (antibody, V domains shown)
VH: EVQLVESGGGLVQPGGSLRLSCATSGFTLSDYYMSWVRQAPGKGLEWVSFMRNKANGYTTEYSASVRGRFTISRDTSKSTIYLQMNSLRAEDTAVYYCVRDRDGRPFAYWGQGTLVTVSS
VL: DIVMTQSPDSLAVSLGERATINCKSSQSLLNSINQKNFLTWYQQKPGQPPKLLIYWASTRESGVPDRFSGSGSGTDFTLTISSLQAEDLAVYYCQNDYTYPLTFGQGTKLEIK
In the case of B3, a half-maximal effect with human CD276 protein [7] (EC50) was put at 1.92 nM. The EC50 values of the last two molecules are within 1.5-fold of each other.

B4: hVH3-hVL3-10 (antibody, V domains shown)
VH: B3 VH with S49G, T80S, R89K, A90T
VL: DIQMTQSPSSLSASVGDRVTITCKSSQSLLNSINQKNFLTWYQQKPGKAPKLLIYWASTRESGVPSRFSGSGSGTDFTLTISSLQPEDLATYYCQNDYTYPLTFGQGTKLEIK
Turning to B4, it took 2.75 nM to reach a half-maximal effect with human CD276 protein [7] (EC50). This EC50 and that of the molecule before are within 1.5-fold of each other.

B5: hVH4-hVL2-10 (antibody, V domains shown)
VH: B3 VH with V12I, A40P
VL: DIVMTQSPLSLPVTPGEPASISCKSSQSLLNSINQKNFLTWYLQKPGQSPQLLIYWASTRESGVPDRFSGSGSGTDFTLKISRVEAEDLGVYYCQNDYTYPLTFGQGTKLEIK
B5 yielded an EC50 with human CD276 protein [7] of 4.43 nM.

B6: hVH4-hVL1-10 (antibody, V domains shown)
VH: B3 VH with V12I, A40P
VL: B3 VL
As for B6, the EC50 with human CD276 protein [7] turned out to be 1.9 nM.

B7: hVH5-hVL3-10 (antibody, V domains shown)
VH: B3 VH with G16R, A23T, S49G, T80I, R89K, A90T
VL: B4 VL
B7 displayed an EC50 with human CD276 protein [7] of 2.98 nM.

B8: hVH5-hVL1-10 (antibody, V domains shown)
VH: B3 VH with G16R, A23T, S49G, T80I, R89K, A90T
VL: B3 VL
For B8, the response with human CD276 protein [7] was half-maximal at 2.63 nM (EC50). This EC50 and that of the molecule before are within 1.5-fold of each other.

The values above are taken from patent US20240400689A1 (ANTENGENE BIOLOGICS, published 2024).
